Measurements published in patent US20180155432A1 (INSTITUT NATIONAL DE LA RECHERCHE SCIENTIFIQUE, published 2018).

Molecular target: T1, recombinant human galectin-1 (human, UniProt P09382 2-135)
T1 construct: Used as the galectin selectivity control; also called hGal-1; Gal-1
Experiment: solid phase fluorescent binding assay; galectin coated at 10 µg/ml, streptavidin R-phycoerythrin detection
Protocol: Recombinant hGal-7 or hGal-1 (10 μg/mL) was coated overnight at 4° C. on black, flat bottom, 96-well polystyrene microplates (Ultident®, Montreal, QC, Canada). Thereafter, the plate was blocked with Reagent diluent (PBS-BSA 1%) for 1h, then incubated with unlabeled hGal-7₍₁₂₉₋₁₃₅₎ (cold) for 60 min and finally incubated with biotin-labeled [Ah⁰]hGal-7₍₁₂₉₋₁₃₅₎ for 2h. Lastly, Streptavidin R-phycoerythrin (1/500, Jackson Immunoresearch®, West Grove, Pa., USA) was applied to samples for 30 min. All incubations were performed at room temperature and the washes between incubations were done with 20 mM potassium phosphate buffer pH 7.1. The plate was read by a Tecan® Infinite M1000 PRO microplate reader at excitation and emission wavelengths of 488 nm and 670 nm, respectively.

T1 sequence (P09382 2-135 limits assumed): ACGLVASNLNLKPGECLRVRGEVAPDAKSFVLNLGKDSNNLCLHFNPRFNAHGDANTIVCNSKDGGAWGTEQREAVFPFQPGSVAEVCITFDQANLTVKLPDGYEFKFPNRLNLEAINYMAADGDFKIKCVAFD

binding result: no binding
B1: biotin-labeled [Ahx0]hGal-7(129-135) (peptide)
peptide: LDSVRIF
HELM: PEPTIDE1{[O=C1N[C@H]2[C@H](CS[C@H]2CCCCC(=O)[*:2])N1].[O=C(CCCCCN[*:1])[*:2]].L.D.S.V.R.I.F.[am]}$$$$V2.0
SMILES: CC[C@H](C)[C@H](NC(=O)[C@H](CCCNC(=N)N)NC(=O)[C@@H](NC(=O)[C@H](CO)NC(=O)[C@H](CC(=O)O)NC(=O)[C@H](CC(C)C)NC(=O)CCCCCNC(=O)CCCC[C@@H]1SC[C@@H]2NC(=O)N[C@@H]21)C(C)C)C(=O)N[C@@H](Cc1ccccc1)C(N)=O
